Source: patent US10428140B2, “Anti-EphA4 antibody” (EISAI R&D MANAGEMENT CO., LTD., priority 2015, dated 2019)

T1: human EphB4 (Homo sapiens, UniProt P54760)
T1 construct: a protein of the extracellular region of each human Eph receptor fused with the SEAP protein and the His tag; made in house; host or cells: Expi293F cells
T1 sequence (P54760 16-539 limits assumed): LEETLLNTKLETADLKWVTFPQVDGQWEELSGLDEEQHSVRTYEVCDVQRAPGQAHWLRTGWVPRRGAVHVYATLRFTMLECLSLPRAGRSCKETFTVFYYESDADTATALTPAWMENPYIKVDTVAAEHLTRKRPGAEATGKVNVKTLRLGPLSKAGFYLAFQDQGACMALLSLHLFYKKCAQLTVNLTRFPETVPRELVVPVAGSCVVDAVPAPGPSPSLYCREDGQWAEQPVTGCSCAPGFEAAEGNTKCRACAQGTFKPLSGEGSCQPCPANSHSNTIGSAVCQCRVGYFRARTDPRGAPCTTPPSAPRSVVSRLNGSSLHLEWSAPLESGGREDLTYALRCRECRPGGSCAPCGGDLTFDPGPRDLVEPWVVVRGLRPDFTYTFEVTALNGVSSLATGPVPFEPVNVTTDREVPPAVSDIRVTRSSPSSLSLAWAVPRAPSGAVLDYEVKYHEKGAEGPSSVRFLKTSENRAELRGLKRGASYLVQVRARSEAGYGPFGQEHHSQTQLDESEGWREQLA

T2: human EphB2 (Homo sapiens, UniProt P29323)
T2 construct: a protein of the extracellular region of each human Eph receptor fused with the SEAP protein and the His tag; made in house; host or cells: Expi293F cells
T2 sequence (P29323 19-543 limits assumed): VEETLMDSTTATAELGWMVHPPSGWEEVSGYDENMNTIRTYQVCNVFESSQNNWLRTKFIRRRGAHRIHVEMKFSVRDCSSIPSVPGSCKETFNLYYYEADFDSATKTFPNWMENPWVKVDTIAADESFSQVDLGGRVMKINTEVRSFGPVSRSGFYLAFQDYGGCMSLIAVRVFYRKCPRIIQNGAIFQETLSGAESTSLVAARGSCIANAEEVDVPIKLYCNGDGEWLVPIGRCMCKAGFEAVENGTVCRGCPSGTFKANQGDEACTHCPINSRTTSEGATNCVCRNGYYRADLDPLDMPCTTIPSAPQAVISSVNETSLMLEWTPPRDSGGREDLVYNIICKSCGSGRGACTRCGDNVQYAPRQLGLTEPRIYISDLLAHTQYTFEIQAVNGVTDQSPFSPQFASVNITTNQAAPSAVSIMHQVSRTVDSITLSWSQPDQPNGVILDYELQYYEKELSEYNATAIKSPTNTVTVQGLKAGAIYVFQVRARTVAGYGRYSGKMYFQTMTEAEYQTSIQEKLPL


What was measured:
Experiment in all cases: Selectivity ELISA of humanized antibodies for human Eph receptor
Format in all cases: binding
[1] = biological target: T1, human EphB4; conditions: coated protein 1 nM
Method in brief: (§1)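 Capture ELISA: anti-6-His coat, 1% BlockAce block, Eph ECD-SEAP-His (1 nM final, Expi293F supernatant) 1 h RT, humanized Ab 1 h RT, HRP anti-IgG 1 h RT, TMB, H2SO4 stop, A450.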

[2] = biological target: T3, human EphA2 (Homo sapiens, UniProt P29317); conditions: coated protein 1 nM
T3 construct: a protein of the extracellular region of each human Eph receptor fused with the SEAP protein and the His tag; made in house; host or cells: Expi293F cells (culture supernatant)
Method in brief: as §1

[3] = biological target: T2, human EphB2; conditions: coated protein 1 nM
Method in brief: as §1

[4] = biological target: T4, human EphA4 (Homo sapiens, UniProt P54764); conditions: coated protein 1 nM; reference set to 100%
T4 construct: made in house; not restated for the human SEAP-His protein
Method in brief: as §1

T4 sequence (P54764 20-547): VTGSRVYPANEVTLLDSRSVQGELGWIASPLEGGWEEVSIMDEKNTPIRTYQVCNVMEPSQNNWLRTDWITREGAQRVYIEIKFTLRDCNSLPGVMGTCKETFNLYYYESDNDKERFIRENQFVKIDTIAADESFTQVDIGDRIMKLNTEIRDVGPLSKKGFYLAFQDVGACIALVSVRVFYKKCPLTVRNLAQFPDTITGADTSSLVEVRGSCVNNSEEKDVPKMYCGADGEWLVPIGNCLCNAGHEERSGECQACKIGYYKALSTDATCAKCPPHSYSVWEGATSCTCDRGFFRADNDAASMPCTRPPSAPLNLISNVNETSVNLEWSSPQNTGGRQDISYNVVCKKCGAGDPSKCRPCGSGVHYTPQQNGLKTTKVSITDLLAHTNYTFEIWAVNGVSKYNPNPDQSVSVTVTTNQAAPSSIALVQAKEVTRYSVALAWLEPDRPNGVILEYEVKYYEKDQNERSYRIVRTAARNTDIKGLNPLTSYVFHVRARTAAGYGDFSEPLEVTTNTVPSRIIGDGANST
T3 sequence (P29317 24-537 limits assumed): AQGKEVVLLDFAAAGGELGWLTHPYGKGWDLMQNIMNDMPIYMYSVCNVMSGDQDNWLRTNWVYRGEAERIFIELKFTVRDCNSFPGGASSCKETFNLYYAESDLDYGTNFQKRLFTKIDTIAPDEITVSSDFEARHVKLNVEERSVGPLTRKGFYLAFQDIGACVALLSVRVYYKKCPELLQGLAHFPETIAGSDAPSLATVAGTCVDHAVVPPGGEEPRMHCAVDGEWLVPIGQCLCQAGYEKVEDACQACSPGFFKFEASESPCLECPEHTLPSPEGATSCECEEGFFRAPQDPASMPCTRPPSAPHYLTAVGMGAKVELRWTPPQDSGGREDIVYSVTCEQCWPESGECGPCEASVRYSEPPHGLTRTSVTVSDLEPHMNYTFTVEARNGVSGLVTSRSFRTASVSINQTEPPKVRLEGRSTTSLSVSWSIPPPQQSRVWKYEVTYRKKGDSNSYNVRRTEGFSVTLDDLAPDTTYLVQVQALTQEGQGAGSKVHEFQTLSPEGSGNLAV

Row | Molecule | hEphB4-SEAP-: absorbance at 450 nm, percentage with respect to hEphA4-SEAP-His as 100% [1] | hEphA2-SEAP-: absorbance at 450 nm, percentage with respect to hEphA4-SEAP-His as 100% [2] | hEphB2-SEAP-: absorbance at 450 nm, percentage with respect to hEphA4-SEAP-His as 100% [3] | hEphA4-SEAP-: absorbance at 450 nm, percentage with respect to hEphA4-SEAP-His as 100% [4]
1 | 82 (antibody, V domains shown, constant regions without entry; synthetic humanized antibody light chain variable region sequence; synthetic humanized antibody heavy chain variable region sequence) VL: DIQMTQSPSSLSASVGDRVTITCRASENIYRNLAWYQQKPGKAPKLLLYAATNLADGVPSRFSGSGSGTDYTLTISSLQSEDFATYYCQHFWGTPWTFGQGTKVEIK VH: QVQLVQSGSELKKPGASVKVSCKASGYTFTDYSMHWVRQAPGQGLKWMGWINTETGEPTYAQGFTGRFVFSLDTSVSTAYLQISSLKAEDTAVYYCARIPLYYYGSRYWYFDVWGQGTTVTVSS | 5.7% | 5.4% | 5.6% | 100%
2 | 81 (antibody, V domains shown, constant regions without entry; synthetic humanized antibody light chain variable region sequence; synthetic humanized antibody heavy chain variable region sequence) VL: DIQMTQSPSSLSASVGDRVTITCRASENIYRNLAWYQQKPGKAPKLLLYAATNLADGVPSRFSGSGSGTDYTLTISSLQSEDFATYYCQHFWGTPWTFGQGTKVEIK VH: QVQLVQSGSELKKPGASVKVSCKASGYTFTDYSMHWVRQAPGQGLEWMGWINTETGEPTYAQGFTGRFVFSLDTSVSTAYLQISSLKAEDTAVYYCARIPLYYYGSRYWYFDVWGQGTTVTVSS | 5.0% | 4.8% | 5.0% | 100%
3 | 84 (antibody, V domains shown, constant regions without entry; synthetic humanized antibody light chain variable region sequence; synthetic humanized antibody heavy chain variable region sequence) VL: DIQMTQSPSSLSASVGDRVTITCRASENIYRNLAWYQQKPGKAPKLLLYAATNLADGVPSRFSGSGSGTDYTLTISSLQSEDFATYYCQHFWGTPWTFGQGTKVEIK VH: QVQLVQSGSELKKPGASVKVSCKASGYTFTDYSMHWVRQAPGQGLEWMGWINTETGEPTYADDFKGRFVFSLDTSVSTAYLQISSLKAEDTAVYYCARIPLYYYGSRYWYFDVWGQGTTVTVSS | 5.4% | 4.9% | 4.9% | 100%
4 | 85 (antibody, V domains shown, constant regions without entry; synthetic humanized antibody light chain variable region sequence; synthetic humanized antibody heavy chain variable region sequence) VL: DIQMTQSPSSLSASVGDRVTITCRASENIYRNLAWYQQKPGKAPKLLLYAATNLADGVPSRFSGSGSGTDYTLTISSLQSEDFATYYCQHFWGTPWTFGQGTKVEIK VH: QVQLVQSGSELKKPGASVKVSCKASGYTFTDYSMHWVRQAPGQGLKWMGWINTETGEPTYADDFKGRFVFSLDTSVSTAYLQISSLKAEDTAVYYCARIPLYYYGSRYWYFDVWGQGTTVTVSS | 5.2% | 5.1% | 5.1% | 100%

Now from value to molecule:

Row | hEphB4-SEAP-: absorbance at 450 nm, percentage with respect to hEphA4-SEAP-His as 100% [1] | hEphA2-SEAP-: absorbance at 450 nm, percentage with respect to hEphA4-SEAP-His as 100% [2] | hEphB2-SEAP-: absorbance at 450 nm, percentage with respect to hEphA4-SEAP-His as 100% [3] | hEphA4-SEAP-: absorbance at 450 nm, percentage with respect to hEphA4-SEAP-His as 100% [4] | Molecule
5 | 5.5% | 5.5% | 5.5% | 100% | 69 (antibody, V domains shown, synthetic humanized antibody heavy chain variable region sequence; synthetic humanized antibody light chain variable region sequence) VH: QIQLVQSGSELKKPGASVKVSCKASGYTFTDYSMHWVRQAPGQGLKWMGWINTETGEPTYADDFKGRFVFSLDTSVSTAYLQISSLKAEDTAVYYCARIPLYYYGSRYWYFDVWGQGTTVTVSS VL: DIQMTQSPSSLSASVGDRVTITCRASENIYRNLAWYQQKPGKAPKLLVYAATNLADGVPSRFSGSGSGTDYTLTISSLQPEDFATYYCQHFWGTPWTFGQGTKVEIK
6 | 5.8% | 5.7% | 5.7% | 100% | 86 (antibody, V domains shown, constant regions without entry; synthetic humanized antibody light chain variable region sequence; synthetic humanized antibody heavy chain variable region sequence) VL: DIQMTQSPSSLSASVGDRVTITCRASENIYRNLAWYQQKPGKAPKLLLYAATNLADGVPSRFSGSGSGTDYTLTISSLQSEDFATYYCQHFWGTPWTFGQGTKVEIK VH: QIQLVQSGSELKKPGASVKVSCKASGYTFTDYSMHWVRQAPGQGLKWMGWINTETGEPTYADDFKGRFVFSLDTSVSTAYLQISSLKAEDTAVYYCARIPLYYYGSRYWYFDVWGQGTTVTVSS
7 | 5.5% | 5.4% | 5.4% | 100% | 87 (antibody, V domains shown, constant regions without entry; synthetic humanized antibody light chain variable region sequence; synthetic humanized antibody heavy chain variable region sequence) VL: DIQMTQSPSSLSASVGDRVTITCRASENIYRNLAWYQQKPGKAPQLLLYAATNLADGVPSRFSGSGSGTDYTLTISSLQPEDFATYYCQHFWGTPWTFGQGTKVEIK VH: QVQLVQSGSELKKPGASVKVSCKASGYTFTDYSMHWVRQAPGQGLEWMGWINTETGEPTYAQGFTGRFVFSLDTSVSTAYLQISSLKAEDTAVYYCARIPLYYYGSRYWYFDVWGQGTTVTVSS
8 | 5.7% | 5.8% | 5.6% | 100% | 83 (antibody, V domains shown, constant regions without entry; synthetic humanized antibody light chain variable region sequence; synthetic humanized antibody heavy chain variable region sequence) VL: DIQMTQSPSSLSASVGDRVTITCRASENIYRNLAWYQQKPGKAPKLLLYAATNLADGVPSRFSGSGSGTDYTLTISSLQSEDFATYYCQHFWGTPWTFGQGTKVEIK VH: QIQLVQSGSELKKPGASVKVSCKASGYTFTDYSMHWVRQAPGQGLKWMGWINTETGEPTYAQGFTGRFVFSLDTSVSTAYLQISSLKAEDTAVYYCARIPLYYYGSRYWYFDVWGQGTTVTVSS
